Reference: PMC8998655, “Effect of Betaine and Arginine on Interaction of αB-Crystallin with Glycogen Phosphorylase b” (International Journal of Molecular Sciences, 2022)

Experiments:
[1] = molecular target: the molecule itself; assay: AUC + other: dynamic light scattering; sedimentation velocity at 48 °C, αB-Cr 0.2 mg/mL, 0.03 M Hepes pH 6.8, ionic strength 0.15 M, with 300 mM betaine; mass by the Svedberg equation with s from AUC and D from DLS; major peak 16.5 S
[2] = molecular target: the molecule itself; assay: AUC + other: dynamic light scattering; sedimentation velocity at 48 °C, αB-Cr 0.2 mg/mL, 0.03 M Hepes pH 6.8, ionic strength 0.15 M, no additive; mass by the Svedberg equation with s from AUC and D from DLS; major peak 20.4 S
[3] = molecular target: the molecule itself; assay: AUC; sedimentation velocity at 48 °C, Phb 0.4 mg/mL alone (also with 500 mM betaine), 0.03 M Hepes pH 6.8, ionic strength 0.15 M, 48,000 rpm

Row | Protein | stoichiometry N [1] | stoichiometry N [2] | stoichiometry N [3]
1 | αB-crystallin (natural protein, human, UniProt P02511 1-175, looked up, αB-crystallin (HspB5), human; Polydisperse oligomer (about 40-mer at 48 °C without additives, about 24-mer with 300 mM betaine); also called HspB5; source: E. coli (pET23 vector), purified (salting out with ammonium sulfate, gel filtration)) MDIAIHHPWIRRPFFPFHSPSRLFDQFFGEHLLESDLFPTSTSLSPFYLRPPSFLRAPSWFDTGLSEMRLEKDRFSVNLDVKHFSPEELKVKVLGDVIEVHGKHEERQDEHGFISREFHRKYRIPADVDPLTITSSLSSDGVLTVNGPRKQVSGPERTIPITREEKPAVTAAPKK | ~24 | 40 | –
2 | glycogen phosphorylase b (enzyme, rabbit, UniProt P00489 1-843, looked up, glycogen phosphorylase b (muscle form), rabbit skeletal muscle; In all experiments the protein was heated at 48 °C, so it was partly unfolded (unfolded monomer and partly unfolded dimer); also called Phb; source: purified from rabbit skeletal muscle) MSRPLSDQEKRKQISVRGLAGVENVTELKKNFNRHLHFTLVKDRNVATPRDYYFALAHTVRDHLVGRWIRTQQHYYEKDPKRIYYLSLEFYMGRTLQNTMVNLALENACDEATYQLGLDMEELEEIEEDAGLGNGGLGRLAACFLDSMATLGLAAYGYGIRYEFGIFNQKICGGWQMEEADDWLRYGNPWEKARPEFTLPVHFYGRVEHTSQGAKWVDTQVVLAMPYDTPVPGYRNNVVNTMRLWSAKAPNDFNLKDFNVGGYIQAVLDRNLAENISRVLYPNDNFFEGKELRLKQEYFVVAATLQDIIRRFKSSKFGCRDPVRTNFDAFPDKVAIQLNDTHPSLAIPELMRVLVDLERLDWDKAWEVTVKTCAYTNHTVLPEALERWPVHLLETLLPRHLQIIYEINQRFLNRVAAAFPGDVDRLRRMSLVEEGAVKRINMAHLCIAGSHAVNGVARIHSEILKKTIFKDFYELEPHKFQNKTNGITPRRWLVLCNPGLAEIIAERIGEEYISDLDQLRKLLSYVDDEAFIRDVAKVKQENKLKFAAYLEREYKVHINPNSLFDVQVKRIHEYKRQLLNCLHVITLYNRIKKEPNKFVVPRTVMIGGKAAPGYHMAKMIIKLITAIGDVVNHDPVVGDRLRVIFLENYRVSLAEKVIPAADLSEQISTAGTEASGTGNMKFMLNGALTIGTMDGANVEMAEEAGEENFFIFGMRVEDVDRLDQRGYNAQEYYDRIPELRQIIEQLSSGFFSPKQPDLFKDIVNMLMHHDRFKVFADYEEYVKCQERVSALYKNPREWTRMVIRNIATSGKFSSDRTIAQYAREIWGVEPSRQRLPAPDEKIP | – | – | 2
